Source: the supplement of paper PMC9170038

Test system: MS2 coat protein
Assay: apparent KD of MS2 coat protein; designed switch direction (-1 OFF switch, 1 ON switch): -1; higher = weaker reporter binding
Method in brief: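 An oligonucleotide input, 200 uM small-molecule ligand, or no input was present during titration of SNAP-549-labelled MS2 coat protein, which was doubled from 0.7 or 1.5 nM to 3 µM. Designed RNA switches had been transcribed on Illumina chips by stalled E. coli RNA polymerase. Apparent KD per design is the median over clusters of curves fitted to normalised cluster fluorescence.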

[1] = input ligand: microRNA oligo, concentration not stated
[2] = Eterna round: R95, input ligand: FMN 200 uM
[3] = Eterna round: R95, input ligand: microRNA oligo, concentration not stated
[4] = Eterna round: R95, input ligand: none

| Sequence | apparent KD of MS2 coat protein (input ligand: FMN 200 uM) | apparent KD of MS2 coat protein (input ligand: none) | apparent KD of MS2 coat protein [1] | apparent KD of MS2 coat protein [2] | apparent KD of MS2 coat protein [3] | apparent KD of MS2 coat protein [4] |
| --- | --- | --- | --- | --- | --- | --- |
| GUUUUGGGAGGAUAUAUGUGGAUAAUUUUUAUAUGAAAUUUACAUGAGGAUCACCCAUGUAGAAGGUCUAGAGC [-18.5, -15.1 kcal, 31% A] (Eterna round: R97, puzzle: Exclusion 2) | 476 nM | 261 nM |  |  |  |  |
| UAAACAUGGAUAUAACAGUACAUGAGGAUCACCCAUGUUAAUAUGAUAAAUUAUAACAAGUUUUUUUGUCGUCUUAA [Feeding at the Trough] (Eterna round: R97, puzzle: Sensor, turn-off variant 1) | 47 nM | 190 nM |  |  |  |  |
| UAAAUGUCAGGAUAUUGUUAAUUUAGUUGUUUGUAUUAGUUCGAGAAGGGACAUGAGGAUCACCCAUGUUAUUU [Ex4 #55] (Eterna round: R97, puzzle: Exclusion 4) | 33.6 nM | 31.9 nM |  |  |  |  |
| UAACUAACUCCUCGGAGCAACAUGAGGAUCACCCAUGUUAUGAACAUUCGGUGUAACAGGAUGUUUGCUCGUCUGGA [Eternabot (Original) Solution 22] (Eterna round: R97, puzzle: Sensor, turn-off variant 1) | 266 nM | 259 nM |  |  |  |  |
| UAACUUUUUGUAAGGAUAUCGGUCCCAAGGGACAACGAGAAGGUACAUGAGGAUCACCCAUGUGAAAUAAGAAU [Mod of Zala 20 - Jieux - Brourd's Mod of Exclusion 4] (Eterna round: R97, puzzle: Brourd's mod of Exclusion 4) | 154 nM | 22.7 nM |  |  |  |  |
| UAAGCAAGCGAAAGAUCCCACAUGAGGAUCACCCAUGUGCUCGUCUUAUAAGGUACUGUGACGAAAGUCACGGUACC [Sensor 3, v1 - 91 v22] (Eterna round: R97, puzzle: Sensor, turn-off variant 1) | 140 nM | 128 nM |  |  |  |  |
| UAAGGUGGUACCAUGAACAUGAGGAUCACCCAUGUACCUUAGAAGGAUAUCGCGACGUGUACGCGCGAGAAGGUCUACAACGUA [Eternabot solution 35] (Eterna round: R96, puzzle: Exclusion NG 3) | 162 nM | 77.5 nM | 70.1 nM |  |  |  |
| UAAUAACAAGCAGGAUCCUACAUGAGGAUCACCCAUGUGCUCGUCUUAUAAAGUACUAUCACGAAAGUGAUAGUACA [Mat - Sensor v3 - turn-off var 1 - Eli Mod - D70] (puzzle: Sensor v3, turn-off variant 1) |  |  |  | 272 nM | 148 nM | 315 nM |
| UAAUAAUAGCAAGGAUAUAGUUAUUAUAAUAUACUAGAAGGUGCACAUGAGGAUCACCCAUGUUUUAUAAUUUGUAAUUUAAAU [3rd something] (Eterna round: R96, puzzle: Exclusion NG 1) |  |  | 20.9 nM |  |  |  |
| UAAUACAAGCAAAGAUCUUACAUGAGGAUCACCCAUGUGCUCGUCUUAUAAAGUACUAUCACGAAAGUGAUAGUACA [Mat - Sensor v3 - turn-off var 1 - Eli Mod - D93] (puzzle: Sensor v3, turn-off variant 1) |  |  |  | 20.4 nM | 181 nM | 31.9 nM |
| UAAUACAAGUAAAGAUCCUACAUGAGGAUCACCCAUGUGCUCGUCUUGUAAAGUACUAUCACGAAAGUGAUAGUACA [Mat - Sensor v3 - turn-off var 1 - Eli Mod - D85] (puzzle: Sensor v3, turn-off variant 1) |  |  |  | 41 nM | 196 nM | 53.1 nM |
| UAAUACAUCUAUGGGAGUAACAUGAGGAUCACCCAUGUAUGUCUUGUUUUUUGUUCGUCAAAGACUUUCUGAUCAGU [JR_SV3TOV1_Sub030] (puzzle: Sensor v3, turn-off variant 1) |  |  |  | 76.7 nM | 191 nM | 83.2 nM |
| UAAUUAAAUGUAGGAUAUCUGCACGUUUAGUGCAGAGAAGGACAUGAGGAUCACCCAUGUAGAUCAAAUUAAAUUAAUUUAAUU [ENG1/5-D2] (Eterna round: R96, puzzle: Exclusion NG 1) | 99.6 nM | 33.8 nM | 25.7 nM |  |  |  |
| UAAUUUAGUGUGAGGAUAUGCUGGUCGAUAGAUCAGCAGAAGGCACAUGAGGAUCACCCAUGUAAUAUAUUAAA [Mat - Exclusion 4 - JL Mod - D35] (puzzle: Brourd's mod of Exclusion 4) |  |  |  | 218 nM | 62.4 nM | 60.2 nM |
| UACAAGCUUUUAAGAUCCUACAUGAGGAUCACCCAUGUGCUCGUCUUAUAACGUACUGUGACGAAAGUCACGGUACG [JL TOV1 3.21] (Eterna round: R97, puzzle: Sensor, turn-off variant 1) | 92.9 nM | 103 nM |  |  |  |  |
| UACAUGAGGAUCACCCAUGUUUUGUCGUGUAUGGUACCCGUCUAGGAUAUCGUGUUAUUGGACCGCGAGAAGGAGAGUAUCAAU [Excl-NG3-LRO03] (Eterna round: R96, puzzle: Exclusion NG 3) | 26.4 nM | 33.5 nM | 20.2 nM |  |  |  |
| UACAUGAGGAUCACCCAUGUUUUGUCGUGUAUGGUACCCGUUUAGGAUAUCGUGUUAUUGGACCGCGAGAAGGAGAGUAUCAAU [Excl-NG3-LRO04] (Eterna round: R96, puzzle: Exclusion NG 3) | 26.5 nM | 29.4 nM | 22.8 nM |  |  |  |
| UACAUGAGGAUCACCCAUGUUUUGUCGUGUAUGGUAUUUAUCUAGGAUAUCAAUCUAUUAAUUUAUGAGAAGGAGAAUAUUAAU [JMF's solution 52] (Eterna round: R96, puzzle: Exclusion NG 3) |  |  | 28.8 nM |  |  |  |
| UACAUGAGGAUCACCCAUGUUUUGUCGUGUAUGGUAUUUAUCUAGGAUAUCAAUUUAGUAAUUUAUGAGAAGGAGAAUAUUAAU [JMF's solution 73] (Eterna round: R96, puzzle: Exclusion NG 3) | 37.5 nM | 40.8 nM | 31.4 nM |  |  |  |
| UACAUGAGGAUCACCCAUGUUUUGUCGUGUAUGGUAUUUAUCUAGGAUAUCAAUUUAUUUAGUUAUGAGAAGGAGAAUAUUAAU [JMF's solution 22] (Eterna round: R96, puzzle: Exclusion NG 3) | 46.8 nM | 37.9 nM | 27.7 nM |  |  |  |
| UACAUGAGGAUCACCCAUGUUUUGUCGUGUAUGGUAUUUAUCUAGGAUAUCAUUAUAUUUAGUUAUGAGAAGGAGAAUAUUAAU [JMF's solution 82] (Eterna round: R96, puzzle: Exclusion NG 3) | 28.1 nM | 44.6 nM | 23.6 nM |  |  |  |
